Common to all, as to assay: ELISA
For experiment [1], the target named is T1, Fc-NKG2D.wt (natural human NKG2D ectodomain fused to the C-terminus of human IgG1 Fc).
The target of experiment [2] is T1, Fc-NKG2D.wt (natural human NKG2D …). This is another data set of the same source.
Experiment [3] shares this target. The source holds these as a separate data set.
Experiment [4] deals with eNKG2D2 S|Y.
Experiment [5] concerns the target eNKG2D14 L|Y.
For experiment [6], the target named is eNKG2D4 V|Y.
For experiment [7], the target named is eNKG2D3 T|Y.

Like-named read-outs stand apart in the source and are kept apart here.

B1: rituximab-ULBP2.AA MicAbody (bispecific antibody)
heavy: not shown
light: QIVLSQSPAILSASPGEKVTMTCRASSSVSYIHWFQQKPGSSPKPWIYATSNLASGVPVRFSGSGSGTSYSLTISRVEAEDAATYYCQQWTSNPPTFGGGTKLEIKTVAAPSVFIFPPSDEQLKSGTASVVCLLNNFYPREAKVQWKVDNALQSGNSQESVTEQDSKDSTYSLSSTLTLSKADYEKHKVYACEVTHQGLSSPVTKSFNRGECAPTSSSGGGGSEPHSLSYDITVIPKFRPGPRWCAVQGQVDEKTFLHYDCGNKTVTPVSPLGKKLNVTTAWKAQNPVLREVVDILTEQLWDIQLENYTPKEPLTLQARMSCEQKAEGHSSGSWQFSFDGQIFLLFDSEKRMWTTVHPGARKMKEKWENDKVVATMFWSWSMGDCIGWLEDFLMGMDSTLEPS
For orientation: EC50 means the concentration giving half of the maximal effect. The low end stands for an effect from little substance, the high end for a need for much substance. The molecule B1 returned an EC50 in experiment [1] of 655 nM. In other words, the sub-micromolar range.

B2: rituximab-ULBP2.AB MicAbody (bispecific antibody)
heavy: not shown
light: QIVLSQSPAILSASPGEKVTMTCRASSSVSYIHWFQQKPGSSPKPWIYATSNLASGVPVRFSGSGSGTSYSLTISRVEAEDAATYYCQQWTSNPPTFGGGTKLEIKTVAAPSVFIFPPSDEQLKSGTASVVCLLNNFYPREAKVQWKVDNALQSGNSQESVTEQDSKDSTYSLSSTLTLSKADYEKHKVYACEVTHQGLSSPVTKSFNRGECAPTSSSGGGGSEPHSLSYDITVIPKFRPGPRWCAVQGQVDEKTFLHYDCGNKTVTPVSPLGKKLNVTTAWKAQNPVLREVVDILTEQLWDIQLENYTPKEPLTLQARMSCEQKAEGHSSGSWQFSFDGQIFLLFDSEKRMWTTVHPGARKMKEKWENDKVVATLMWQWSMGDCIGWLEDFLMGMDSTLEPS
In experiment [1], B2 came in with a concentration for a half-maximal effect (EC50) of 389 nM. This EC50 lies about 1.7-fold lower than the previous one.

B3: rituximab-ULBP2.C MicAbody (bispecific antibody)
heavy: not shown
light: QIVLSQSPAILSASPGEKVTMTCRASSSVSYIHWFQQKPGSSPKPWIYATSNLASGVPVRFSGSGSGTSYSLTISRVEAEDAATYYCQQWTSNPPTFGGGTKLEIKTVAAPSVFIFPPSDEQLKSGTASVVCLLNNFYPREAKVQWKVDNALQSGNSQESVTEQDSKDSTYSLSSTLTLSKADYEKHKVYACEVTHQGLSSPVTKSFNRGECAPTSSSGGGGSEPHSLSYDITVIPKFRPGPRWCAVQGQVDEKTFLHYDCGNKTVTPVSPLGKKLNVTTAWKAQNPVLREVVDILTEQLWDIQLENYTPKEPLTLQARMSCEQKAEGHSSGSWQFSFDGQIFLLFDSEKRMWTTVHPGARKMKEKWENDKVVATILWQTSMGDCIGWLEDFLMGMDSTLEPS
Molecule B3 displayed an EC50 in experiment [1] of 130 nM.

B4: rituximab-ULBP2.S3 MicAbody (bispecific antibody)
heavy: not shown
light: QIVLSQSPAILSASPGEKVTMTCRASSSVSYIHWFQQKPGSSPKPWIYATSNLASGVPVRFSGSGSGTSYSLTISRVEAEDAATYYCQQWTSNPPTFGGGTKLEIKRTVAAPSVFIFPPSDEQLKSGTASVVCLLNNFYPREAKVQWKVDNALQSGNSQESVTEQDSKDSTYSLSSTLTLSKADYEKHKVYACEVTHQGLSSPVTKSFNRGECAPTSSSGGGGSEPHSLSYDITVIPKFRPGPRWCAVQGQVDEKTFLHYDCGNKTVTPVSPLGKKLNVTTAWKAQNPVLREVVDILTEQLWDIQLENYTPKEPLTLQARMSCEQKAEGHSSGSWQFSFDGQIFLLFDSEKRMWTTVHPGARKMKEKWENDKVVATKLYLWSMGDCIGWLEDFLMGMDSTLEPS
Regarding B4, in experiment [2], the EC50 is 52.7 nM.

B5: ULBP2.wt rituximab-MicAbody (bispecific antibody)
heavy: not shown
light: QIVLSQSPAILSASPGEKVTMTCRASSSVSYIHWFQQKPGSSPKPWIYATSNLASGVPVRFSGSGSGTSYSLTISRVEAEDAATYYCQQWTSNPPTFGGGTKLEIKRTVAAPSVFIFPPSDEQLKSGTASVVCLLNNFYPREAKVQWKVDNALQSGNSQESVTEQDSKDSTYSLSSTLTLSKADYEKHKVYACEVTHQGLSSPVTKSFNRGECAPTSSSGGGGSEPHSLSYDITVIPKFRPGPRWCAVQGQVDEKTFLHYDCGNKTVTPVSPLGKKLNVTTAWKAQNPVLREVVDILTEQLRDIQLENYTPKEPLTLQARMSCEQKAEGHSSGSWQFSFDGQIFLLFDSEKRMWTTVHPGARKMKEKWENDKVVAMSFHYFSMGDCIGWLEDFLMGMDSTLEPS
B5: the values for the 50% effective concentration (EC50) in experiment [3] and in experiment [2] were 1.41 nM and 1.02 nM, respectively.

B6: ULBP2.wt (bispecific antibody)
heavy: not shown
light: QIVLSQSPAILSASPGEKVTMTCRASSSVSYIHWFQQKPGSSPKPWIYATSNLASGVPVRFSGSGSGTSYSLTISRVEAEDAATYYCQQWTSNPPTFGGGTKLEIKRTVAAPSVFIFPPSDEQLKSGTASVVCLLNNFYPREAKVQWKVDNALQSGNSQESVTEQDSKDSTYSLSSTLTLSKADYEKHKVYACEVTHQGLSSPVTKSFNRGECAPTSSSGGGGSEPHSLSYDITVIPKFRPGPRWCAVQGQVDEKTFLHYDCGNKTVTPVSPLGKKLNVTTAWKAQNPVLREVVDILTEQLRDIQLENYTPKEPLTLQARMSCEQKAEGHSSGSWQFSFDGQIFLLFDSEKRMWTTVHPGARKMKEKWENDKVVAMSFHYFSMGDCIGWLEDFLMGMDSTLEPS
On to B6, for which the EC50 amounted to 34.8 nM in experiment [4], 87.6 nM in experiment [5], 35.8 nM in experiment [6] and 31.1 nM in experiment [7].

(Values after patent publication US20250109178A1 (published 2025).)
